According to patent publication US20200317816A1 (Novartis, published 2020):

B1: anti-FXI/FXIa antibody NOV1401 (antibody, human IgG1, lambda, V domains shown)
VH: QVQLLESGGGLVQPGGSLRLSCAASGFTFSTAAMSWVRQAPGKGLEWVSGISGSGSSTYYADSVKGRFTISRDNSKNTLYLQMNSLRAEDTAVYYCARELSYLYSGYYFDYWGQGTLVTVSS
VL: QSVLTQPPSASGTPGQRVTISCSGSSSNIGSNDVSWYQQLPGTAPKLLIYKNYNRPSGVPDRFSGSKSGTSASLAISGLQSEDEADYYCSAWDQRQFDVVFGGGTKLTVLG

Tests used:
[1] = target: B1; test: SPR (ProteOn XPR36), NOV1401 amine-coupled on the chip, Fab as analyte 0.125-4 nM, Langmuir 1:1 fit, 25 C; average of n=2
Protocol: SPR binding experiments were performed on a ProteOn XPR36 instrument (Bio-Rad Laboratories, Inc.) in PBS/T buffer (50 mM phosphate, 150 mM NaCl, pH 7.4, 0.005% v/v Tween-20) at 25° C. […] Unreacted groups were blocked by injecting 1 M ethanolamine.
Blank surfaces were used for background corrections. There was no need to regenerate surfaces since the ProteOn protein interaction array system allows to run up to six binding experiments on an identical surface in parallel.
Data processing and analysis including kon, koff, and KD determination were performed with the ProteOn Manager™ software version 3.1.0.6. Sensorgrams were fitted by applying a Langmuir 1:1 binding model (Rmax set at global) and dissociation constants were calculated from kon and koff.

[2] = target: B1; test: cell-based or functional assay
[3] = target: B1; test: solution equilibrium titration (SET), constant Fab with NOV1401 titrated in solution, free Fab captured on biotinylated NOV1401, 1:1 fit; average of n=2
Protocol: (§1) After washing the plate again three times, 30 μl of detection reagent (LumiGLO Peroxidase Chemiluminescent Substrate, KPL#54-61-01) was added to each well. Electrochemiluminescence (ECL) signals were generated and detected immediately with a luminescence imager (SpectraMax M5, Molecular Devices, LLC).
(§2) Average ECL-signals were calculated from duplicate measurements within each assay. Data were baseline adjusted by subtracting the lowest value from all data points and plotted against the corresponding antigen concentration.

[4] = target: B1; test: cell-based or functional assay; remark: listed apart in the source
[5] = target: B1; test: solution equilibrium titration (SET), constant Fab with NOV1401 titrated in solution, free Fab captured on biotinylated NOV1401, 1:1 fit; average of n=3
Protocol: as §1, §2

[6] = target: B1; test: Solution equilibrium titration (SET): constant Fab, NOV1401 titrated in solution, free Fab captured on biotinylated NOV1401, luminescence (RLU) read, 1:1 fit
Protocol: as §1, §2

[7] = target: Human FXI in normal human plasma (human, UniProt P03951 19-625); test: cell-based or functional assay
Human FXI in normal human plasma, sequence (P03951 19-625 C226S limits assumed): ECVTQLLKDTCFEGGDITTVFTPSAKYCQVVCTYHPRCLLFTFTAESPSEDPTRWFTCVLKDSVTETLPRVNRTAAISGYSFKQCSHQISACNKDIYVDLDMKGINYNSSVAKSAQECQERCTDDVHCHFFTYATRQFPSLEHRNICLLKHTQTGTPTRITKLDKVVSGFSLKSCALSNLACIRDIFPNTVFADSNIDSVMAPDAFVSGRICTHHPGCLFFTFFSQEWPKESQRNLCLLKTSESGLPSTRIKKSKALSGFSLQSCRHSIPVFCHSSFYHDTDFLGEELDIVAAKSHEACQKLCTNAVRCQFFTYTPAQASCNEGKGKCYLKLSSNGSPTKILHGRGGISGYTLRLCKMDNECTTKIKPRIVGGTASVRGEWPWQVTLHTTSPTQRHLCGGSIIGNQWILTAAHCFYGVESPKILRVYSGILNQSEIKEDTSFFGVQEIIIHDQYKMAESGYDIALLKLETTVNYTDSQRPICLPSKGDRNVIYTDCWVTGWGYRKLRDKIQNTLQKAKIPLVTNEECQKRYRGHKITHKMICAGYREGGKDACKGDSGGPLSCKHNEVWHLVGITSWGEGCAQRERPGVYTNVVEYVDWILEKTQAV

Row | Binder | Kd [1] [nM] | percentage reversal of the NOV1401 effect on thrombin generation (TGA), NOV1401/anti NOV1401 ratio 1/1 (n/n) [2] [%] | percentage reversal of the NOV1401 effect on thrombin generation (TGA), NOV1401/anti NOV1401 ratio 1/3 (n/n) [2] [%] | percentage reversal of the NOV1401 effect on thrombin generation (TGA), NOV1401/anti NOV1401 ratio 1/10 (n/n) [2] [%] | Kd [3] [nM] | percentage reversal of NOV1401 aPTT prolongation, NOV1401/anti NOV1401 ratio 1/1 (n/n) [4] [%] | percentage reversal of NOV1401 aPTT prolongation, NOV1401/anti NOV1401 ratio 1/3 (n/n) [4] [%] | percentage reversal of NOV1401 aPTT prolongation, NOV1401/anti NOV1401 ratio 1/10 (n/n) [4] [%] | Kd [5] [nM] | Kd [6] [nM] | IC50 of NOV1401 for reduction of peak thrombin in the TGA in human plasma [7] [nM]
1 | IDT3 anti-NOV1401 Fab (Fab, V domains shown, Human Fab; The heavy chain entry is VH-CH1 (Fd); also called antidote) VH: QVQLVESGGGLVKPGGSLRLSCAASGFTFQSAAVHWVRQAPGKGLEWVGRIKSKADGGTTDYAAPVKGRFTISRDDSKNTLYLQMNSLKTEDTAVYYCARDSPSISSYSIPYFSGMDVWGQGTLVTVSS VL: DIQMTQSPSSLSASVGDRVTITCRASQGIRAWLNWYQQKPGKAPKLLIYAASSLQSGVPSRFSGSGSGTDFTLTISSLQPEDFATYYCHQYITHPPTFGQGTKVEIKR | 0.24 | 31 | 47 | 67 | 0.1 | 9 | 35 | 58 |  |  | 
2 | IDT4 anti-NOV1401 Fab (Fab, V domains shown, Human Fab; The heavy chain entry is VH-CH1 (Fd); also called antidote) VH: QVQLVESGGGLVKPGGSLRLSCAASGFTFSSAAVHWVRQAPGKGLEWVGRIKSKASGGTTDYAAPVKGRFTISRDDSKNTLYLQMNSLKTEDTAVYYCARDSPSISSYSIPYFSGMDVWGQGTLVTVSS VL: DIQMTQSPSSLSASVGDRVTITCRASQGIRAWLNWYQQKPGKAPKLLIYAASSLQSGVPSRFSGSGSGTDFTLTISSLQPEDFATYYCHQYITHPPTFGQGTKVEIKR | 0.31 | 33 | 53 | 60 | 0.97 | 10 | 27 | 39 |  |  | 
3 | IDT5 anti-NOV1401 Fab (Fab, V domains shown, Human Fab; The heavy chain entry is VH-CH1 (Fd); also called antidote) VH: QVQLVESGGGLVKPGGSLRLSCAASGFTFSSAAVHWVRQAPGKGLEWVGRIKSKADAGTTDYAAPVKGRFTISRDDSKNTLYLQMNSLKTEDTAVYYCARDSPSISSYSIPYFSGMDVWGQGTLVTVSS VL: DIQMTQSPSSLSASVGDRVTITCRASQGIRAWLNWYQQKPGKAPKLLIYAASSLQSGVPSRFSGSGSGTDFTLTISSLQPEDFATYYCHQYITHPPTFGQGTKVEIKR | 0.35 | 55 | 56 | 72 |  | 17 | 42 | 56 | 0.14 |  | 
4 | IDT6 anti-NOV1401 Fab (Fab, V domains shown, Human Fab with a lambda light chain; The heavy chain entry is VH-CH1 (Fd); also called antidote) VH: QVQLVQSGAEVKKPGESLKISCKGSGYSFTNYWIGWVRQMPGKGLEWMGIIFPGVSYTKYSPSFQGQVTISADKSISTAYLQWSSLKASDTAMYYCARGSDQTLRGSRAMDYWGQGTLVTVSS VL: QSALTQPASVSGSPGQSITISCTGTSSDVGISNYVSWYQQHPGKAPKLMIYEVSNRPSGVSNRFSGSKSGNTASLTISGLQAEDEADYYCQSYTSLNYVFGGGTKLTVLG | 10.1 | 18 | 41 | 37 |  | 9 | 22 | 38 |  |  | 
5 | IDT7 anti-NOV1401 Fab (Fab, V domains shown, Human Fab; The heavy chain entry is VH-CH1 (Fd); also called antidote) VH: QVQLVESGGGLVKPGGSLRLSCAASGFTFSSNAMHWVRQAPGKGLEWVGRIKSKTDGGTTDYAAPVKGRFTISRDDSKNTLYLQMNSLKTEDTAVYYCARDHYYYPFAYWGQGTLVTVSS VL: DIQMTQSPSSLSASVGDRVTITCRASQSIRYNLAWYQQKPGKAPKLLIYAASSLQSGVPSRFSGSGSGTDFTLTISSLQPEDFATYYCHQYIAKPITFGQGTKVEIKR | 0.33 | 50 | 66 | 71 | 0.96 | 16 | 37 | 54 |  | 0.16 | 
6 | IDT8 anti-NOV1401 Fab (Fab, V domains shown, Human Fab; The heavy chain entry is VH-CH1 (Fd); also called antidote) VH: QVQLVESGGGLVKPGGSLRLSCAASGFTFSSNAMHWVRQAPGKGLEWVGRIKSKTSGGTTDYAAPVKGRFTISRDDSKNTLYLQMNSLKTEDTAVYYCARDHYYYPFAYWGQGTLVTVSS VL: DIQMTQSPSSLSASVGDRVTITCRASQSIRYNLAWYQQKPGKAPKLLIYAASSLQSGVPSRFSGSGSGTDFTLTISSLQPEDFATYYCHQYIAKPITFGQGTKVEIKR | 2.15 | 41 | 56 | 69 |  | 8 | 25 | 42 | 0.16 | 0.96 | 
7 | IDT9 anti-NOV1401 Fab (Fab, V domains shown, Human Fab; The heavy chain entry is VH-CH1 (Fd); also called antidote) VH: QVQLVQSGAEVKKPGASVKVSCKASGYTFTNYYVHWVRQAPGQGLEWMGWINPYNGNTNYAQKFQGRVTMTRDTSISTAYMELSRLRSEDTAVYYCARGASSIRMSYYLDVWGQGTLVTVSS VL: DIQMTQSPSSLSASVGDRVTITCRASQSISNYLNWYQQKPGKAPKLLIYAASNLQSGVPSRFSGSGSGTDFTLTISSLQPEDFATYYCFQYTHSPATFGQGTKVEIKR | 1.92 | 41 | 61 | 72 | 0.68 | 10 | 25 | 46 |  |  | 
8 | IDT10 anti-NOV1401 Fab (Fab, V domains shown, Human Fab; The heavy chain entry is VH-CH1 (Fd); also called antidote) VH: QVQLVQSGAEVKKPGASVKVSCKASGYTFTNYYVHWVRQAPGQGLEWMGWINPYSGNTNYAQKFQGRVTMTRDTSISTAYMELSRLRSEDTAVYYCARGASSIRMSYYLDVWGQGTLVTVSS VL: DIQMTQSPSSLSASVGDRVTITCRASQSISNYLNWYQQKPGKAPKLLIYAASNLQSGVPSRFSGSGSGTDFTLTISSLQPEDFATYYCFQYTHSPATFGQGTKVEIKR | 5.97 | 37 | 45 | 57 | 1.19 | 12 | 25 | 40 |  |  | 
9 | IDT1 anti-NOV1401 Fab (Fab, V domains shown, The heavy chain entry is VH-CH1 (Fd); also called antidote) VH: QVQLLESGGGLVQPGGSLRLSCAASGFTFSDYAMSWVRQAPGKGLEWVSVIDYSSSNTYYADSVKGRFTISRDNSKNTLYLQMNSLRAEDTAVYYCAREGYSYRSIRFDYWGQGTLVTVSS VL: DIQMTQSPSSLSASVGDRVTITCRASQSISSNLNWYQQKPGKAPKLLIYAASNLQSGVPSRFSGSGSGTDFTLTISSLQPEDFATYYCLQFDHTPFTFGQGTKVEIKR | 0.44 | 49 | 55 | 55 | 0.11 | 12 | 45 | 64 |  |  | 
10 | B1 |  |  |  |  |  |  |  |  |  |  | 50
